Assay results taken from article PMC8267817.

Molecular target: T1, phosphorylated peptide CKATQA(p)SQEY corresponding to the C-terminal end of γ-H2AX (human)
T1 sequence (peptide, phosphoserine at S139 (7th letter of the printed peptide)): CKATQASQEY
Assay: SPR; Biacore T200, 25 °C, HBS-P (10 mM HEPES pH 7.4, 150 mM NaCl, 0.05% P20); phosphopeptide immobilised by thiol coupling of its N-terminal cysteine; VHH injected 120 s; Kd from equilibrium response fitted to a 1:1 model; fractional occupancy at saturating amounts (C6 180 nM, C6B 80 nM)

Kd: 11 nM
B1: C6 nanobody (purified, monovalent) (VHH)
VHH: DVQLVESGGGLVQAGDSLRLSCAASGLTFSRYAMGWFRQAPGNEREFVAVITASGRTTLYADSVKGRFTISRDNAKNTVALQMQSLKPEDTAVYYCAADYGTSRYTRRQSEYEYWGQGTQVTVSS
